Measured values from US20200283519A1 (IMCHECK THERAPEUTICS, published 2020).

T1: human BTN2A2 expressed on HEK293F cells transfected with BTN2A2-Flag plasmid (human, UniProt Q8WVV5 33-523)
T1 construct: HEK293F cells here are not knocked out for endogenous BTN2/BTN3; also called HEK-BTN2 cells; not shown: Flag tag
T1 sequence: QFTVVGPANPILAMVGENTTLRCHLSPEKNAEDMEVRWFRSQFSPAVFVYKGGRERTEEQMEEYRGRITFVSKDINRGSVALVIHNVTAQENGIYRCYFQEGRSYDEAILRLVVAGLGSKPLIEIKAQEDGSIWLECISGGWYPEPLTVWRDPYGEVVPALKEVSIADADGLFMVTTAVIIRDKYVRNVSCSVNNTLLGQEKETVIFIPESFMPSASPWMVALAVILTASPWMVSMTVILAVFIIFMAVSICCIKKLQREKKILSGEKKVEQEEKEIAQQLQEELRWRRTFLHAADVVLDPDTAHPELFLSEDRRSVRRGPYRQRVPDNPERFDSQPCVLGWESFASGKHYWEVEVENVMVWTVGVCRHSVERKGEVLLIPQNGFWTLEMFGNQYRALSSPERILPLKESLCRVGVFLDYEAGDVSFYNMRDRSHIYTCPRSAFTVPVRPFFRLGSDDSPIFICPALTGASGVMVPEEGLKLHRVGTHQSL

T2: human BTN2A2 CFP(Nter)-fusion protein expressed on 293F BTN3/BTN2 KO cells (human, UniProt Q8WVV5 33-523)
T2 construct: also called pcDNA3-Zeo-BTN2A2-CFP; not shown: CFP fused at the N-terminus (CFP(Nter)-fusion)
T2 sequence: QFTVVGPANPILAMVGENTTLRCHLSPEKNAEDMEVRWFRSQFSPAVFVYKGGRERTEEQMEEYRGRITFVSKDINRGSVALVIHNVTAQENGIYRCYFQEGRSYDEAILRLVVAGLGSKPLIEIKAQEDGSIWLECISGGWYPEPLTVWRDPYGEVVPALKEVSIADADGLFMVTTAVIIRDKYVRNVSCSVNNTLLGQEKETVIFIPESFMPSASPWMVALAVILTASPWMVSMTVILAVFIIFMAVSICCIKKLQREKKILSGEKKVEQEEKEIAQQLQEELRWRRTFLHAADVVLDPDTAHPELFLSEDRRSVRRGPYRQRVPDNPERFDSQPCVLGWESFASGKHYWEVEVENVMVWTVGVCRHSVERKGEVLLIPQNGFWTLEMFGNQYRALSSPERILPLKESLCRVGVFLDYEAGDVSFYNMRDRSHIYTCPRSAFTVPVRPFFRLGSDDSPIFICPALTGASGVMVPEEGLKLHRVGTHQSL

T3: human BTN2A1 CFP(Nter)-fusion protein expressed on 293F BTN3/BTN2 KO cells (human, UniProt Q7KYR7 29-527)
T3 construct: also called pcDNA3-Zeo-BTN2A1-CFP; not shown: CFP fused at the N-terminus (CFP(Nter)-fusion)
T3 sequence: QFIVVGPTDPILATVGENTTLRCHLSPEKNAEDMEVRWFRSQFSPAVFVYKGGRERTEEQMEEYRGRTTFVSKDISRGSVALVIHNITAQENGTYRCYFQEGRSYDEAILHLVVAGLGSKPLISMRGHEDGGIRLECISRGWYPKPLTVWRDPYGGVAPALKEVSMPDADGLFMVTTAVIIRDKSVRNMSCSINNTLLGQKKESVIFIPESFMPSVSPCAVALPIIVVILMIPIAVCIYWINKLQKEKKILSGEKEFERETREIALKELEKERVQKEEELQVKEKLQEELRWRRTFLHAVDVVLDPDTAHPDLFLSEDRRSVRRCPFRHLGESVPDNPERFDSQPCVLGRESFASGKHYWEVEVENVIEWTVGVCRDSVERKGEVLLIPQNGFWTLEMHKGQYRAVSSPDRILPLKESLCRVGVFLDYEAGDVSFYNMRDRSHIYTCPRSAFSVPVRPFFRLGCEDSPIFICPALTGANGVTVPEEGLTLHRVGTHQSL


Columns and labels:
[1] = target: T1, human BTN2A2 expressed on HEK293F cells …; assay: flow cytometry on HEK-BTN2 cells (summary table, repeats the 5th table)
[2] = target: T2, human BTN2A2 CFP(Nter)-fusion protein …; assay: flow cytometry (PE MFI in CFP-positive cells) on 293F BTN3/BTN2 KO cells transfected with BTN2A2-CFP
Description: (§1) HEK-293F cells bearing CRISPR-Cas9-mediated deletions of all isoforms of BTN3 and BTN2 (293F BTN3/BTN2 KO) were generated (data not shown), cultured in DMEM (Life Technologies) 10% fetal bovine serum (FBS, Gibco) 1 mM sodium pyruvate (Thermofisher scientific), and transfected independently with pcDNA3-Zeo-BTN2A1-CFP or pcDNA3-Zeo-BTN2A2-CFP, which encode BTN2A1 and BTN2A2 CFP(Nter)-fusion proteins, using Lipofectamine 2000 reagent (Thermofisher scientific) according to manufacturer's instructions.
(§2) Twenty-four hours after transfection, cells (5×10⁴/sample) were collected and stained in duplicate with the indicated concentrations (2-fold dilutions starting from 20 μg/mL to 64 pg/mL) of all 7 purified anti-human BTN2 mAbs in 50 μL of staining buffer (DPBS1X (Thermofisher scientific) 1% FBS, 1 mM EDTA (Thermofisher scientific)) during 30 minutes at 4° C. Equal concentrations of mouse IgG1 antibody (Miltenyi) were used as isotype control for staining. Then, cells were washed twice with 200 μL of staining buffer, and incubated with a 1:200 dilution of goat anti-mouse Ig-PE conjugated (Jackson Immunoresearch) in staining buffer for 30 min at 4° C. in the dark. Finally, cells were washed twice in staining buffer prior to fixation using BD Cytofix reagent (BD Bioscience) according to manufacturer's instructions. Mean fluorescence intensity (MFI) on PE channel within the CFP-positive population was assessed for each sample in a Cytoflex LX (Beckman Coulter), and analyzed with a FlowJo V10.4.2 software (FlowJo, LLC 2006-2018).

[3] = target: T3, human BTN2A1 CFP(Nter)-fusion protein …; assay: flow cytometry on BTN2A1-transfected 293F BTN3/BTN2 KO cells (summary table, repeats the 7th table)
Description: as §1, §2

[4] = target: T3, human BTN2A1 CFP(Nter)-fusion protein …; assay: flow cytometry (PE MFI in CFP-positive cells) on 293F BTN3/BTN2 KO cells transfected with BTN2A1-CFP
Description: as §1, §2

[5] = target: T1, human BTN2A2 expressed on HEK293F cells …; assay: flow cytometry titration on HEK293F cells transfected with BTN2A2-Flag
[6] = target: T2, human BTN2A2 CFP(Nter)-fusion protein …; assay: flow cytometry on BTN2A2-transfected 293F BTN3/BTN2 KO cells (summary table, repeats the 7th table)
Description: as §1, §2

[7] = target: T1, human BTN2A2 expressed on HEK293F cells …; assay: flow cytometry on HEK293F cells transfected with BTN2A2-Flag
Description: FIG. 1: Binding of BTN2 mAbs on HEK293F cells. HEK293F cells were transfected with BTN2A2-Flag plasmid. At day 1 after transfection, BTN2A2 transfected HEK293F cells (A) and non-transfected HEK293F cells (B) were stained with purified mouse anti-human BTN2 mAbs for 20 min at 4° C. Monoclonal Anti-Flag antibody serves as positive control for transfection. After 2 washes, cells were incubated with a secondary goat anti-mouse IgG PE for 20 min at 4° C. and a marker for cell viability. Cells were acquired on a LSRFortessa (BD) and analyzed with FlowJo (TreeStar).

[8] = target: T3, human BTN2A1 CFP(Nter)-fusion protein …; assay: flow cytometry on 293F BTN3/BTN2 KO cells transfected with BTN2A1-CFP
Description: as §1
as §2, with “Finally, cells were washed twice in staining buffer prior to fixation using BD Cytofix reagent (BD Bioscience) according to manufacturer's instructions.” left out

[9] = target: T2, human BTN2A2 CFP(Nter)-fusion protein …; assay: flow cytometry on 293F BTN3/BTN2 KO cells transfected with BTN2A2-CFP
Description: as §1
as §2, with “Finally, cells were washed twice in staining buffer prior to fixation using BD Cytofix reagent (BD Bioscience) according to manufacturer's instructions.” left out

Binder	EC50 [1] [mg/L]	EC50 [2] [mg/L]	EC50 [3] [mg/L]	EC50 [4] [mg/L]	EC50 [5] [mg/L]	EC50 [6] [mg/L]	binding result [7]	binding result [8]	binding result [9]
mAb4 (mouse anti-human BTN2 mAb 7.48) (antibody, V domains shown, Mouse IgG1 purified from hybridoma supernatant; also called CNCM I-5234) VH: EVQLVESGGDLVKPGGSLKLSCAASGFTFSDFYMYWVRRTPEKRLEWVATISDGGSHTYYPDSVKGRFTISRDNAKNNLYLQMRSLKSEDTAMYYCGRDTTIITPYWGQGTLVTVSA VL: QSVVTQESALTTSPGETVTLTCRSSTGAVTTSNYANWVQEKPDHLFTGLIGGTNNRAPGVPARFSGSLIGDKAALTITGAQTEDEAIYFCGLWYSNHWVFGGGTKLTVL	0.08	0.01	0.02	0.02	0.08	0.01	–	–	–
mAb1 (mouse anti-human BTN2 mAb 4.15) (antibody, V domains shown, Mouse IgG1 purified from hybridoma supernatant; also called CNCM I-5231) VH: QVQLQQSGAELVKPGASVKLSCKASGYIFTSYDINWVRQRPEQGLEWIGWIFPGDDSIIQNEKFKGKATLTTDKSSSTVYMQLSRLTSEDSAVYFCARLGPLRGFTYWGQGTLVTVSA VL: DIVLTQSPASLAVSLGQRATISCRASESVDRYGSSFMHWYQQKPGQPPKLLIYRASNLESGIPARFSGSGSRTDFTLTINPVEADDVATYYCQQSNEDPWTFGGGTKLEIK	0.07	0.01	0.06	0.06	0.07	0.01	–	–	–
mAb3 (mouse anti-human BTN2 mAb 7.28) (antibody, V domains shown, Mouse IgG1 purified from hybridoma supernatant; also called CNCM I-5233) VH: QVHLQQSGAELMKPGASVKISCKATGYTFSSYWIEWVKQRPGHGREWIGEILPGSGSTKYNEKFRGKATFAADTSSNTAYVQLSSLTSEDSAVYYCARLKGYYGGGAMDYWGQGTSVTVSS VL: DVQITQSPSYLAASPGETITINCRASKSISKYLAWYQEKPGKTNELLIYSGSTLQSGIPSRFSGSGSGTDFTLTISSLEPEDFAMYYCQQHNEYPWTFGGGTKLEIK	31.3	11.8	0.02	0.02	31.3	11.8	–	–	–
mAb5 (mouse anti-human BTN2 mAb 8.15) (antibody, V domains shown, Mouse IgG1 purified from hybridoma supernatant; also called CNCM I-5235) VH: EVKLLESGGGLVQPGGSLKLSCAASGFDFSGYWMTWVRQAPGKGLEWIGEINPDSSTINYTPSLRDKFIISRDNAKNTLYLQMSKVRSEDTALYFCARGSYYPSYWGQGTLVTVSA VL: DIVLTQSPASLAVSLGQRATISCRASKSVSSSGYSYMNWYQQKPGQPPKLLIYLASNLESGVPARFSGSGSGTDFTLNIHPVEDEDAATYYCQHSRELPHTFGGGTKLEIK	0.1	0.5	0.08	0.08	0.1	0.5	–	–	–
mAb6 (mouse anti-human BTN2 mAb 8.16) (antibody, V domains shown, Mouse IgG1 purified from hybridoma supernatant; also called CNCM I-5236) VH: EVKLLESGGGLVQPGGSLKLSCAASGFDFSGYWMTWVRQAPGKGLEWIGEINPDSSTINYTPSLRDKFIISRDNAKNTLYLQMSKVRSEDTALYFCARGSYYPSYWGQGTLVTVSA VL: DIVLTQSPASLAVSLGQRATISCRASKSVSSSGYSYMNWYQQKPGQPPKLLIYLASNLESGVPARFSGSGSGTDFTLNIHPVEDEDAATYYCQHSRELPHTFGGGTKLEIK	0.11	2.4	0.08	0.08	0.11	2.4	–	–	–
mAb7 (mAb 8.33, comparative control antibody) (antibody, V domains shown, Mouse IgG1 purified from hybridoma supernatant; also called CNCM I-5237) VH: DVQLQESGPGLVKPSQSLSLTCSVTGYSITSGYYWNWIRQFPGNKLEWMGYISYDGNNNYNPSLKNRISITRDTSKNQFFLKLNSVTTEDTATYYCASPLYDGYYWYFDVWGAGTTVTVSS VL: ETTVTQSPASLSLAIGEKVTIRCITSTDIDDDMNWYQQKPGEPPKLLISEANTLRPGVPSRFSSSGRGTDFVFTIENMLSEDVADYYCLQSDNLPYTFGGGTKLEIK	–	–	–	–	–	–	no binding	no binding	no binding
mAb2 (mouse anti-human BTN2 mAb 5.28) (antibody, V domains shown, Mouse IgG1 purified from hybridoma supernatant; also called CNCM I-5232) VH: QIQLVQSGPELKKPGETVKISCKASGYTFTDYSMNWVKQAPGKGLKWVGRINTETGEPTYADDFKGRFAFSLETSASTAYLQIKNLKNEDTATYFCVRDYAKRWGQGTSVTVSS VL: DIVMTQSHKFMSTSVGDRVSITCKASQDVITAVAWYQQKPGQSPKLLIYSTSYRYTGVPDRFTGSGSGTDFTFTISSVQAEDLAVYYCLQHYTTPWTFGGGTKLEIK	0.07	0.01	0.04	0.04	0.07	0.01	–	–	–
